Numbering of substitutions follows the chain as printed.

Assay [1] has as its target human CDH17 as originally expressed on cancer cells (AsPC1, GP2d and other CDH17 expressing cell lines) (human) (UniProt Q12864). The assay is described as follows: flow cytometry on AsPC1 cells, Alexa Fluor 647 labelled antibody. (A flow cytometer gives signals particle by particle.)
Assay [2] has as its target human CDH17 as originally expressed on cancer cells (AsPC1, GP2d and other CDH17 expressing cell lines) (human, UniProt Q12864 23-832). The assay is described as follows: cell-based or functional assay.
Assay [3] concerns the target T1, human CDH6-His tag (Acro Biosystems, catalog number CA6-H5229) (human, UniProt P55285 54-615).
T1 construct: Bought protein; also called hCDH6; not shown: His tag
T1 sequence (looked up): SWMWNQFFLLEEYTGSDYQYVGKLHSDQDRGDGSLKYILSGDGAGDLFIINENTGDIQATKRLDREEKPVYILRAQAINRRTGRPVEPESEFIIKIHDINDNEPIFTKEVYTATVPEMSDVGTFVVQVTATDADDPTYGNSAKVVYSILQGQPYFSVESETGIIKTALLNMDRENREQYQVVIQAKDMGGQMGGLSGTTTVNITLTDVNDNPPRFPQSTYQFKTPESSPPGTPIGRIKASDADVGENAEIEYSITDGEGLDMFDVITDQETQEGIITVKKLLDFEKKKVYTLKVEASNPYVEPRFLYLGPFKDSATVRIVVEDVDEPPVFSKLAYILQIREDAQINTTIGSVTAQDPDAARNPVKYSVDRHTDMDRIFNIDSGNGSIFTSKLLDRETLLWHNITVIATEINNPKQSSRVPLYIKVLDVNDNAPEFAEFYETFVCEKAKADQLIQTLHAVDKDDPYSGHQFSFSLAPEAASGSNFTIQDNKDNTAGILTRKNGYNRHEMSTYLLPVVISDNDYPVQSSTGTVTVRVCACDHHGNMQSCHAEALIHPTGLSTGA
The assay is described as follows: BLI (Octet Red 384), antibody captured on AHC biosensor. As to the method:
(§1) The affinity between CDH17 antibodies and CDH17 antigens and homologues was determined by Octet (Octet Red 384) instrument. Anti-hIgG Fc Capture (AHC) Biosensors were selected, and the sensors were balanced with buffer solution for 10 min. Subsequently, sensors were dipped into the wells containing 1 μg/ml of CDH17 lead antibodies to load onto the probes. The excess unbound antibodies were washed off. The antigen binding was performed in the wells containing serially diluted human CDH17-His tag (Sino biological, catalog number 11360-H08H), cynomolgus CDH17-His tag (Acro Biosystems, catalog number CA7-C52H4), homologs human CDH6-His tag (Acro Biosystems, catalog number CA6-H5229) and human CDH16-His tag (Sino biological, catalog number 10915-H08H), with concentration ranging from 200 nM to 3.1 nM, for 5 min. Then probes were dipped into wells containing renewed buffer to initiate the dissociation for another 15 min.

The target of assay [4] is T2, human CDH16-His tag (Sino biological, catalog number 10915-H08H) (human, UniProt O75309 19-786).
T2 construct: Bought protein; also called hCDH16; not shown: His tag
T2 sequence (looked up): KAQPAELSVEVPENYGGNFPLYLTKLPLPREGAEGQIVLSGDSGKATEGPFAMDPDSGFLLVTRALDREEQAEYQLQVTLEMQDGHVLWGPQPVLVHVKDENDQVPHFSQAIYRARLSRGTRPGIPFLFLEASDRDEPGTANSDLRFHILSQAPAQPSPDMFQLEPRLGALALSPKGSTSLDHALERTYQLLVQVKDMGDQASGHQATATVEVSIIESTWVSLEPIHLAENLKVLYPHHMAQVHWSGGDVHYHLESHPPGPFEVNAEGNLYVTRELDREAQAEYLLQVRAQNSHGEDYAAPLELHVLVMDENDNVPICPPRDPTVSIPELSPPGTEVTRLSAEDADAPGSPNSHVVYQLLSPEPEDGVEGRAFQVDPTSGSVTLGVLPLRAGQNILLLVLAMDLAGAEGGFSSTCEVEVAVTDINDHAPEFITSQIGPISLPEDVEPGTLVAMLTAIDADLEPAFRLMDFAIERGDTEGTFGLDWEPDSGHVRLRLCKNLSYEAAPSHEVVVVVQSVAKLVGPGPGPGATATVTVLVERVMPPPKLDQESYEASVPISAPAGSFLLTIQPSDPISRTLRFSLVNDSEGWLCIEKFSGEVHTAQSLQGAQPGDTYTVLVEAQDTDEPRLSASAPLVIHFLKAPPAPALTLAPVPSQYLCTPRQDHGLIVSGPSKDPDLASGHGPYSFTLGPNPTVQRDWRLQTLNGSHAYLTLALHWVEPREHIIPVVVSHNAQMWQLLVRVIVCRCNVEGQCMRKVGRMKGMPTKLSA
The description is as above. How it is done: as §1

In assay [5] the target is T3, cynomolgus CDH17-His tag (Acro Biosystems, catalog number CA7-C52H4) (cynomolgus, UniProt A0A2K5X8I8 31-795).
T3 construct: Bought protein; also called cCDH17; cynomolgus CDH17 protein; not shown: His tag
The assay is described as follows: BLI (Octet Red 384), antibody captured on AHC biosensor, antigen 200 nM to 3.1 nM. How it is done: as §1

T3 sequence (A0A2K5X8I8 entry or part of it, form in doubt): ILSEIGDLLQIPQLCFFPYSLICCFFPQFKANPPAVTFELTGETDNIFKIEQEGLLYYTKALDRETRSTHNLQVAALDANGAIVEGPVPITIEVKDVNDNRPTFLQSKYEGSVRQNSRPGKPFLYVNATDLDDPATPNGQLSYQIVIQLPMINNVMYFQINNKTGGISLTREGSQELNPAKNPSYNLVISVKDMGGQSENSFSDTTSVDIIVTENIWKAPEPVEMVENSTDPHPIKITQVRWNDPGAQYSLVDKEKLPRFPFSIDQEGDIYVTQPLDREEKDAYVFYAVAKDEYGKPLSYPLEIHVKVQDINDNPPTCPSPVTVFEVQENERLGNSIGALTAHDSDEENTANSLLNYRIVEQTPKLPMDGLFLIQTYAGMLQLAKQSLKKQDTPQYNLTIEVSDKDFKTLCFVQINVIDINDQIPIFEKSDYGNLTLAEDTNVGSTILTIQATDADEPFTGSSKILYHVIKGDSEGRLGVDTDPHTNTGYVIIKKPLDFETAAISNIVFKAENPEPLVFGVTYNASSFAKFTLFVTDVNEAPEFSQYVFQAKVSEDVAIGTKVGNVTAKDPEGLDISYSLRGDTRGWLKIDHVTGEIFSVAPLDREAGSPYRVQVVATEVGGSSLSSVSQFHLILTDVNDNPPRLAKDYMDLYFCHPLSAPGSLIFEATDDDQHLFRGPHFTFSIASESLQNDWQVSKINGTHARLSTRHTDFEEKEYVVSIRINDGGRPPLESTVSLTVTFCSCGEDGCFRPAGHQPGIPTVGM

By EC80 is commonly meant the concentration at which the effect reaches the 80% level. Low values mean an effect from little substance, high ones a need for much substance. In the case of “HBMAB-81, reformatted mAb with the CDH17 binding arm from bispecific antibody BI 905771 and human IgG1 backbone”, in assay [1], the EC80 was determined as 0.97 nM.

B1: 13C7 anti-CDH17 recombinant antibody (human IgG1) (antibody, V domains shown)
VH: QITLKESGPTLVKPTQTLTLTCTFSGFSLSTSGVGVGWIRQPPGKALEWLALIYWNDDKRYRPSLKNRLTITKDTSKNQVVLTMTNMDPVDTATYYCTHYGVTAPFYNWFDPWGQGTLVTVSS
VL: DIQMTQSPSSLSASVGDRVTITCRASQSITSYLNWYQQKPGKAPKLLIYAASSLQSGVPSRFSGSGSGTDFTLTISSLQPEDFATYYCQRSYSTLTFGGGTKVEIKR
As for B1, the “IC50 of indirect killing assay (internalization) in AsPC1 cells, complex with Fab anti-human IgG Fc-MMAF” value (from here on “IC50 of indirect killing assay”) in assay [2] worked out at 0.09 nM.

B2: 19C7 anti-CDH17 recombinant antibody (human IgG1) (antibody, V domains shown)
VH: B1 VH with F27I, S32G, A51S, R62S, N67S, T75S, T98A, Y100S, V102L, T103A
VL: B1 VL with T30S, S31N, Q38L, K42N, Y49F, Y87F
Consider B2, for which the “IC50 of indirect killing assay” value in assay [2] was 0.09 nM.

B3: 17F3 anti-CDH17 recombinant antibody (human IgG1) (antibody, V domains shown)
VH: EVQLVESGGGLVKSGGSLRLSCAASGFTFSSYSLKWVRQAPGKGLEWVSSISSSSGYIYYADSVKGRFTISRDNAKNSLYLQMNSLRAEDTAMYYCARAVSTIAARPGYYYYYMDVWGKGTLVTVSS
VL: DIQMTQSPSSVSASIGDRVTITCRASQDISTWFAWYQQKPGKAPKLLIYAASTLRSGVPSRFSGSGSGTDFTLTINSLQPEDFATYYCQQANSFPLTFGGGTKVEIKR
Turning to B3, the “IC50 of indirect killing assay” value in assay [2] is 0.08 nM.

B4: 1H10 anti-CDH17 recombinant antibody (human IgG1) (antibody, V domains shown)
VH: QVQLVESGGGVVQPGRSLRLSCVASGFTFSSYGMHWVRQAPGKGLEWVTFIWYDGSNKNYADSVKGRFTISRDNSKNTLNLQMNSLRVEDTAVYYCARDRYSSGWDVFDYWGQGTLVTVSS
VL: DIQMTQSPSSVSASVGDRVTITCRASQDISSWLAWYQQQPGKAPKLQIYAASSLQSGVPSRFSGSGSGTDFTLTISSLQPEDFATYYCQQAKSFPPTFGQGTKVEIKR
With B4, in assay [2], the “IC50 of indirect killing assay” value worked out at 0.19 nM.

B5: 10E11 anti-CDH17 recombinant antibody (human IgG1) (antibody, V domains shown)
VH: EVQLVQSGTEVKKPGESLKISCKDSGYRFSSYWIGWVRQMPGKGLEWMGIIYPGDSDTRYSPSFQGQVTISADKSISTAYLQWRSLKASDTAMYYCARRGWVNYFDYWGQGTLVTVSS
VL: B3 VL with I15V, D28G, T31N, F33L, A34G, T53S, R55Q, N76S
notes: Recombinant human IgG1 / kappa, expressed in CHO or ExpiCHO-S cells
As usually defined, the Kd is a measure of binding affinity in units of concentration. As usually defined, the koff is the first-order rate constant of dissociation. High values mean fast dissociation, low ones slow dissociation. What is called kon is a measure of how fast the partners come together. As for B5, the binding result in assay [3] is given as “no binding (tested: 200 nM highest antigen concentration)”. The binding result in assay [4] is “no binding (tested: 200 nM highest antigen concentration)”. The “IC50 of indirect killing assay” value in assay [2] came out at 0.08 nM. In assay [5], this molecule had a Kd of 15 nM, a koff of 0.0012 s⁻¹ and a kon of 80000 M⁻¹ s⁻¹.

B6: 15A4 anti-CDH17 recombinant antibody (human IgG1) (antibody, V domains shown)
VH: B4 VH with V23A, T28N, T49A, I51V, K58Q, K76N, N80Y, V88A
VL: B4 VL with D28G, Q39K, Q47L, Y49F, D70G
As to B6, the “IC50 of indirect killing assay” value in assay [2] is 1.99 nM.

B7: 4F9 anti-CDH17 recombinant antibody (human IgG1) (antibody, V domains shown)
VH: QVQLQESGPGLVKPSGTLSLTCAVSGGSISSSNWWSWVRQPPGKGLEWIGEIYHSGSTSYNPSLKSRVTISVDKSKNQFSLKLSSVTAADTAVYYCARNDWGFPLDCWGQGTLVTVSS
VL: DIQMTQSPSSLSASVGDRVTITCRASQSISSYLNWYQQKPGKAPKLLIYAASSLQSGVPSRFSGSGSGTHFTLTISSLQPEDFATYYCQQSHNIPITFGQGTRLEIKR
Turning to B7, the “IC50 of indirect killing assay” value in assay [2] amounted to 0.29 nM.

B8: 14B12 anti-CDH17 recombinant antibody (human IgG1) (antibody, V domains shown)
VH: QVQLQESGPGLVKPSETLSLTCTVSGGSINTYYRSWIRQPPGKGLEWIGYIYYSGNTNYNPSLKSRVTISADTSKNQFSLNLISVTAADTAMYYCARAQYGEEAFDIWGQGTLVTVSS
VL: DIQMTQSPSSLSASVGDRVTITCRASQSITTYLNWYQQKPGKAPQLLIFAASRLQTGVPSRFSGSGSGTDFTLTISSLLPGDFATYYCQQSYNTPPTFGGGTKVEIKR
notes: as for B5
On to B8, for which the binding result in assay [3] and in assay [4] was “no binding (tested: 200 nM highest antigen concentration)” in each case. In addition, the “IC50 of indirect killing assay” value in assay [2] is 0.09 nM.

B9: 2F9 anti-CDH17 recombinant antibody (human IgG1) (antibody, V domains shown)
VH: EVQLVESGGGVVRPGGSLRLSCAASGFTFDDYGMSWVRQAPGKGLEWVSGLSWNGGNTYYADSVKGRFTISRDNAKNSLYLQMNSLRAEDTALYYCARGSRYNWNYDAFDIWGQGTLVTVSS
VL: DIQMTQSPSSLSASIGDRVTITCRASQGIRNALGWYQQKPGKAPKRLIYAASNLQSGVPSRFSGSGSGTEFTLTISSLQPEDFATYYCLQHNSYPFTFGPGTKVEIKR
Take B9: the “IC50 of indirect killing assay” value in assay [2] was 0.14 nM.

B10: 9E2 anti-CDH17 recombinant antibody (human IgG1) (antibody, V domains shown)
VH: B9 VH with D31N, L51I, S52N, N57S, K65R, N105S
VL: B9 VL with I15V, I29V, N53S
With B10, the “IC50 of indirect killing assay” value in assay [2] is 0.15 nM.

For the origin of these results see patent publication US20260273085A1 (HANSOH BIO, published 2026).
